Results from paper PMC2946844.

Target: T1, 1xMBD-GFP (UniProt Q9Z2E2 1-75)
T1 sequence: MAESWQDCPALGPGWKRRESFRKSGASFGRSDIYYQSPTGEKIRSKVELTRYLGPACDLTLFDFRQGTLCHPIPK
Assay: SPR

B1: o_o_o/o_o_o (dsDNA)
DNA 1: TTTGCGGTCCGCTGCCCGACCC
DNA 2: GGGTCGGGCAGCGGACCGCAAA
Kd: 72 ± 5 µM

B2: o_m_m/o_o_o (dsDNA)
DNA 1: TTTGCGGTCCGCTGCCCGACCC
DNA 2: GGGTCGGGCAGCGGACCGCAAA
modifications: strand 1 5mC10,5mC17
Kd: 3.09 ± 0.02 µM

B3: o_m_m/m_o_m (dsDNA)
DNA 1: TTTGCGGTCCGCTGCCCGACCC
DNA 2: GGGTCGGGCAGCGGACCGCAAA
modifications: strand 1 5mC10,5mC17; strand 2 5mC5,5mC17
Kd: 0.169 ± 0.002 µM

B4: m_o_o*/o_m_o (dsDNA)
DNA 1: GTAGTTTGCGGTCCGCTGCCCGACC
DNA 2: GGGTCGGGCAGCGGACCGCAAA
modifications: strand 1 5mC9; strand 2 5mC12
Kd: 5.41 ± 0.05 µM

B5: m_o_o*/m_o_m (dsDNA)
DNA 1: GTAGTTTGCGGTCCGCTGCCCGACC
DNA 2: GGGTCGGGCAGCGGACCGCAAA
modifications: strand 1 5mC9; strand 2 5mC5,5mC17
Kd: 0.564 ± 0.004 µM

B6: o_o_m/m_o_m (dsDNA)
DNA 1: TTTGCGGTCCGCTGCCCGACCC
DNA 2: GGGTCGGGCAGCGGACCGCAAA
modifications: strand 1 5mC17; strand 2 5mC5,5mC17
Kd: 0.179 ± 0.001 µM

B7: o_o_o/m_o_m (dsDNA)
DNA 1: TTTGCGGTCCGCTGCCCGACCC
DNA 2: GGGTCGGGCAGCGGACCGCAAA
modifications: strand 2 5mC5,5mC17
Kd: 5.7 ± 0.3 µM

B8: m_o_o/m_o_m (dsDNA)
DNA 1: TTTGCGGTCCGCTGCCCGACCC
DNA 2: GGGTCGGGCAGCGGACCGCAAA
modifications: strand 1 5mC5; strand 2 5mC5,5mC17
Kd: 2.08 ± 0.02 µM

B9: o_o_m/m_o_o (dsDNA)
DNA 1: TTTGCGGTCCGCTGCCCGACCC
DNA 2: GGGTCGGGCAGCGGACCGCAAA
modifications: strand 1 5mC17; strand 2 5mC17
Kd: 5.97 ± 0.08 µM

B10: o_o_o/o_m_o (dsDNA)
DNA 1: TTTGCGGTCCGCTGCCCGACCC
DNA 2: GGGTCGGGCAGCGGACCGCAAA
modifications: strand 2 5mC12
Kd: 12 ± 1 µM

B11: m_o_o*/o_o_o (dsDNA)
DNA 1: GTAGTTTGCGGTCCGCTGCCCGACC
DNA 2: GGGTCGGGCAGCGGACCGCAAA
modifications: strand 1 5mC9
Kd: 13.1 ± 0.3 µM

B12: o_o_m/o_o_o (dsDNA)
DNA 1: TTTGCGGTCCGCTGCCCGACCC
DNA 2: GGGTCGGGCAGCGGACCGCAAA
modifications: strand 1 5mC17
Kd: 6.8 ± 0.1 µM

B13: o_m_m/o_m_m (dsDNA)
DNA 1: TTTGCGGTCCGCTGCCCGACCC
DNA 2: GGGTCGGGCAGCGGACCGCAAA
modifications: strand 1 5mC10,5mC17; strand 2 5mC5,5mC12
Kd: 0.139 ± 0.007 µM

B14: o_o_m/o_m_o (dsDNA)
DNA 1: TTTGCGGTCCGCTGCCCGACCC
DNA 2: GGGTCGGGCAGCGGACCGCAAA
modifications: strand 1 5mC17; strand 2 5mC12
Kd: 2.3 ± 0.06 µM

B15: m_o_o*/o_m_m (dsDNA)
DNA 1: GTAGTTTGCGGTCCGCTGCCCGACC
DNA 2: GGGTCGGGCAGCGGACCGCAAA
modifications: strand 1 5mC9; strand 2 5mC5,5mC12
Kd: 3.74 ± 0.06 µM

B16: o_o_m/o_m_m (dsDNA)
DNA 1: TTTGCGGTCCGCTGCCCGACCC
DNA 2: GGGTCGGGCAGCGGACCGCAAA
modifications: strand 1 5mC17; strand 2 5mC5,5mC12
Kd: 0.116 ± 0.001 µM

B17: m_o_o/o_m_m (dsDNA)
DNA 1: TTTGCGGTCCGCTGCCCGACCC
DNA 2: GGGTCGGGCAGCGGACCGCAAA
modifications: strand 1 5mC5; strand 2 5mC5,5mC12
Kd: 3.67 ± 0.03 µM

B18: o_m_m/m_m_m (dsDNA)
DNA 1: TTTGCGGTCCGCTGCCCGACCC
DNA 2: GGGTCGGGCAGCGGACCGCAAA
modifications: strand 1 5mC10,5mC17; strand 2 5mC5,5mC12,5mC17
Kd: 0.181 ± 0.001 µM

B19: o_m_o/o_m_m (dsDNA)
DNA 1: TTTGCGGTCCGCTGCCCGACCC
DNA 2: GGGTCGGGCAGCGGACCGCAAA
modifications: strand 1 5mC10; strand 2 5mC5,5mC12
Kd: 0.252 ± 0.002 µM

B20: o_o_o_o/o_o_o_o (dsDNA)
DNA 1: GAAGTCAACAGGACGGACGCCGCGCAA
DNA 2: CTCTTTCTTTGCGCGGCGTCCGTCCTGTTGACTTCCTCT
Kd: 37 ± 2 µM

B21: m_o_o_o/o_m_m_o (dsDNA)
DNA 1: GAAGTCAACAGGACGGACGCCGCGCAA
DNA 2: B20 DNA 2
modifications: strand 1 5mC14; strand 2 5mC14,5mC17
Kd: 2.4 ± 0.09 µM

B22: o_m_o_o/o_m_m_o (dsDNA)
DNA 1: GAAGTCAACAGGACGGACGCCGCGCAA
DNA 2: B20 DNA 2
modifications: strand 1 5mC18; strand 2 5mC14,5mC17
Kd: 0.315 ± 0.004 µM

B23: o_o_m_o/o_m_m_o (dsDNA)
DNA 1: GAAGTCAACAGGACGGACGCCGCGCAA
DNA 2: B20 DNA 2
modifications: strand 1 5mC21; strand 2 5mC14,5mC17
Kd: 0.158 ± 0.003 µM

B24: o_o_o_m/o_o_m_o (dsDNA)
DNA 1: GAAGTCAACAGGACGGACGCCGCGCAA
DNA 2: B20 DNA 2
modifications: strand 1 5mC23; strand 2 5mC14
Kd: 2.65 ± 0.03 µM

B25: o_o_o_m/o_o_m_m (dsDNA)
DNA 1: GAAGTCAACAGGACGGACGCCGCGCAA
DNA 2: B20 DNA 2
modifications: strand 1 5mC23; strand 2 5mC12,5mC14
Kd: 0.281 ± 0.007 µM

B26: o_o_m_o/o_o_m_o (dsDNA)
DNA 1: GAAGTCAACAGGACGGACGCCGCGCAA
DNA 2: B20 DNA 2
modifications: strand 1 5mC21; strand 2 5mC14
Kd: 0.106 ± 0.001 µM

B27: o_o_o_o/o_m_m_o (dsDNA)
DNA 1: GAAGTCAACAGGACGGACGCCGCGCAA
DNA 2: B20 DNA 2
modifications: strand 2 5mC14,5mC17
Kd: 3.19 ± 0.03 µM

B28: o_o_o_m/o_o_o_o (dsDNA)
DNA 1: GAAGTCAACAGGACGGACGCCGCGCAA
DNA 2: B20 DNA 2
modifications: strand 1 5mC23
Kd: 7.6 ± 0.2 µM

B29: o_m_o_o/o_o_m_o (dsDNA)
DNA 1: GAAGTCAACAGGACGGACGCCGCGCAA
DNA 2: B20 DNA 2
modifications: strand 1 5mC18; strand 2 5mC14
Kd: 3.12 ± 0.04 µM

B30: o_o_o_o/o_o_m_o (dsDNA)
DNA 1: GAAGTCAACAGGACGGACGCCGCGCAA
DNA 2: B20 DNA 2
modifications: strand 2 5mC14
Kd: 3.66 ± 0.05 µM

B31: o_m_o_o/o_o_m_m (dsDNA)
DNA 1: GAAGTCAACAGGACGGACGCCGCGCAA
DNA 2: B20 DNA 2
modifications: strand 1 5mC18; strand 2 5mC12,5mC14
Kd: 2.4 ± 0.04 µM

B32: m_o_o_o/o_o_m_o (dsDNA)
DNA 1: GAAGTCAACAGGACGGACGCCGCGCAA
DNA 2: B20 DNA 2
modifications: strand 1 5mC14; strand 2 5mC14
Kd: 3.51 ± 0.03 µM

B33: o_o_m_o/o_o_o_o (dsDNA)
DNA 1: GAAGTCAACAGGACGGACGCCGCGCAA
DNA 2: B20 DNA 2
modifications: strand 1 5mC21
Kd: 5.86 ± 0.09 µM

B34: o_m_o_o/o_o_o_o (dsDNA)
DNA 1: GAAGTCAACAGGACGGACGCCGCGCAA
DNA 2: B20 DNA 2
modifications: strand 1 5mC18
Kd: 14.7 ± 0.4 µM

B35: o_o_o_o/o_o_m_m (dsDNA)
DNA 1: GAAGTCAACAGGACGGACGCCGCGCAA
DNA 2: B20 DNA 2
modifications: strand 2 5mC12,5mC14
Kd: 4.5 ± 0.1 µM

B36: o_o_m_o/o_o_m_m (dsDNA)
DNA 1: GAAGTCAACAGGACGGACGCCGCGCAA
DNA 2: B20 DNA 2
modifications: strand 1 5mC21; strand 2 5mC12,5mC14
Kd: 0.156 ± 0.002 µM

B37: m_o_o_o/m_m_o_o (dsDNA)
DNA 1: GAAGTCAACAGGACGGACGCCGCGCAA
DNA 2: B20 DNA 2
modifications: strand 1 5mC14; strand 2 5mC17,5mC21
Kd: 0.561 ± 0.006 µM

B38: m_o_o_o/o_o_o_o (dsDNA)
DNA 1: GAAGTCAACAGGACGGACGCCGCGCAA
DNA 2: B20 DNA 2
modifications: strand 1 5mC14
Kd: 16.8 ± 0.5 µM

B39: o_o_o_m/o_m_m_o (dsDNA)
DNA 1: GAAGTCAACAGGACGGACGCCGCGCAA
DNA 2: B20 DNA 2
modifications: strand 1 5mC23; strand 2 5mC14,5mC17
Kd: 1.94 ± 0.02 µM

B40: m_o_o_o/o_o_m_m (dsDNA)
DNA 1: GAAGTCAACAGGACGGACGCCGCGCAA
DNA 2: B20 DNA 2
modifications: strand 1 5mC14; strand 2 5mC12,5mC14
Kd: 3.11 ± 0.03 µM

B41: o_o_o_o/m_m_o_o (dsDNA)
DNA 1: GAAGTCAACAGGACGGACGCCGCGCAA
DNA 2: B20 DNA 2
modifications: strand 2 5mC17,5mC21
Kd: 7.5 ± 0.2 µM

B42: o_m_o/m_o_m (dsDNA)
DNA 1: TTTGCGGTCCGCTGCCCGACCC
DNA 2: GGGTCGGGCAGCGGACCGCAAA
modifications: strand 1 5mC10; strand 2 5mC5,5mC17
Kd: 8.6 ± 0.1 µM

B43: o_m_o/o_m_o (dsDNA)
DNA 1: TTTGCGGTCCGCTGCCCGACCC
DNA 2: GGGTCGGGCAGCGGACCGCAAA
modifications: strand 1 5mC10; strand 2 5mC12
Kd: 0.244 ± 0.002 µM

B44: m_o_o/m_m_m (dsDNA)
DNA 1: TTTGCGGTCCGCTGCCCGACCC
DNA 2: GGGTCGGGCAGCGGACCGCAAA
modifications: strand 1 5mC5; strand 2 5mC5,5mC12,5mC17
Kd: 2.2 ± 0.02 µM

B45: o_o_o/m_m_m (dsDNA)
DNA 1: TTTGCGGTCCGCTGCCCGACCC
DNA 2: GGGTCGGGCAGCGGACCGCAAA
modifications: strand 2 5mC5,5mC12,5mC17
Kd: 4.6 ± 0.2 µM

B46: o_m_m/m_o_o (dsDNA)
DNA 1: TTTGCGGTCCGCTGCCCGACCC
DNA 2: GGGTCGGGCAGCGGACCGCAAA
modifications: strand 1 5mC10,5mC17; strand 2 5mC17
Kd: 3.47 ± 0.05 µM

B47: m_o_o/o_o_o (dsDNA)
DNA 1: TTTGCGGTCCGCTGCCCGACCC
DNA 2: GGGTCGGGCAGCGGACCGCAAA
modifications: strand 1 5mC5
Kd: 35 ± 1 µM

B48: o_m_o/o_o_o (dsDNA)
DNA 1: TTTGCGGTCCGCTGCCCGACCC
DNA 2: GGGTCGGGCAGCGGACCGCAAA
modifications: strand 1 5mC10
Kd: 10 ± 0.1 µM

B49: m_o_o*/m_m_m (dsDNA)
DNA 1: GTAGTTTGCGGTCCGCTGCCCGACC
DNA 2: GGGTCGGGCAGCGGACCGCAAA
modifications: strand 1 5mC9; strand 2 5mC5,5mC12,5mC17
Kd: 0.534 ± 0.004 µM

B50: o_m_m/o_m_o (dsDNA)
DNA 1: TTTGCGGTCCGCTGCCCGACCC
DNA 2: GGGTCGGGCAGCGGACCGCAAA
modifications: strand 1 5mC10,5mC17; strand 2 5mC12
Kd: 0.271 ± 0.005 µM

B51: m_o_o/o_m_o (dsDNA)
DNA 1: TTTGCGGTCCGCTGCCCGACCC
DNA 2: GGGTCGGGCAGCGGACCGCAAA
modifications: strand 1 5mC5; strand 2 5mC12
Kd: 5.5 ± 0.9 µM

B52: o_m_o/m_m_m (dsDNA)
DNA 1: TTTGCGGTCCGCTGCCCGACCC
DNA 2: GGGTCGGGCAGCGGACCGCAAA
modifications: strand 1 5mC10; strand 2 5mC5,5mC12,5mC17
Kd: 0.398 ± 0.002 µM

B53: o_o_o/o_m_m (dsDNA)
DNA 1: TTTGCGGTCCGCTGCCCGACCC
DNA 2: GGGTCGGGCAGCGGACCGCAAA
modifications: strand 2 5mC5,5mC12
Kd: 4.28 ± 0.05 µM
